Measurements as given in patent US20200157198A1 (POPULAS BIOPHARMACEUTICAL WUHAN, published 2020).
One block for each molecule: values may come before it.

Experiments:
[1] = target: polypeptide C8079BB030-1 (…); assay: indirect ELISA on coated peptide (1 ug/ml); unimmunized serum 1:1,000; column No. 1954
[2] = target: polypeptide C8079BB030-1 (…); assay: indirect ELISA on coated peptide (1 ug/ml); unimmunized serum 1:1,000; column No. 1955
[3] = target: polypeptide C8079BB030-1 (…); assay: indirect ELISA on coated peptide (1 ug/ml); unimmunized serum 1:1,000; column No. 1956
[4] = target: polypeptide C8079BB030-1 (…); assay: indirect ELISA on coated peptide (1 ug/ml); unimmunized serum 1:1,000; column No. 1957
[5] = target: polypeptide C8079BB030-1 (…); assay: indirect ELISA on coated peptide (1 ug/ml); unimmunized serum 1:1,000; column No. 1958
[6] = target: T1, HA-tagged human Nav1.9 expressed in ND7/23 cells (human, UniProt Q9UI33 1-1791, limits assumed); assay: Western blot of lysate of ND7/23 cells transfected with HA-hNav1.9; antibody 1:300
T1 construct: Assayed as SDS-PAGE-separated lysate of transfected ND7/23 cells (Western blot); also called HA-hNav1.9; human Nav1.9-HA; not shown: HA tag
Procedure: 4. The cell lysate was centrifuged at 12000 rpm for 10 minutes at 4° C. to collect the cell lysis supernatant.
6. After […], the cells were incubated with HA tag (1:2000) antibody and 5A2F9-4 (1:300) antibody for 1 hour at room temperature.
8. A digoxigenin-labeled anti-mouse antibody (1:20000) was added and incubated for 1 hour at room temperature;

T1 sequence (Q9UI33 whole entry): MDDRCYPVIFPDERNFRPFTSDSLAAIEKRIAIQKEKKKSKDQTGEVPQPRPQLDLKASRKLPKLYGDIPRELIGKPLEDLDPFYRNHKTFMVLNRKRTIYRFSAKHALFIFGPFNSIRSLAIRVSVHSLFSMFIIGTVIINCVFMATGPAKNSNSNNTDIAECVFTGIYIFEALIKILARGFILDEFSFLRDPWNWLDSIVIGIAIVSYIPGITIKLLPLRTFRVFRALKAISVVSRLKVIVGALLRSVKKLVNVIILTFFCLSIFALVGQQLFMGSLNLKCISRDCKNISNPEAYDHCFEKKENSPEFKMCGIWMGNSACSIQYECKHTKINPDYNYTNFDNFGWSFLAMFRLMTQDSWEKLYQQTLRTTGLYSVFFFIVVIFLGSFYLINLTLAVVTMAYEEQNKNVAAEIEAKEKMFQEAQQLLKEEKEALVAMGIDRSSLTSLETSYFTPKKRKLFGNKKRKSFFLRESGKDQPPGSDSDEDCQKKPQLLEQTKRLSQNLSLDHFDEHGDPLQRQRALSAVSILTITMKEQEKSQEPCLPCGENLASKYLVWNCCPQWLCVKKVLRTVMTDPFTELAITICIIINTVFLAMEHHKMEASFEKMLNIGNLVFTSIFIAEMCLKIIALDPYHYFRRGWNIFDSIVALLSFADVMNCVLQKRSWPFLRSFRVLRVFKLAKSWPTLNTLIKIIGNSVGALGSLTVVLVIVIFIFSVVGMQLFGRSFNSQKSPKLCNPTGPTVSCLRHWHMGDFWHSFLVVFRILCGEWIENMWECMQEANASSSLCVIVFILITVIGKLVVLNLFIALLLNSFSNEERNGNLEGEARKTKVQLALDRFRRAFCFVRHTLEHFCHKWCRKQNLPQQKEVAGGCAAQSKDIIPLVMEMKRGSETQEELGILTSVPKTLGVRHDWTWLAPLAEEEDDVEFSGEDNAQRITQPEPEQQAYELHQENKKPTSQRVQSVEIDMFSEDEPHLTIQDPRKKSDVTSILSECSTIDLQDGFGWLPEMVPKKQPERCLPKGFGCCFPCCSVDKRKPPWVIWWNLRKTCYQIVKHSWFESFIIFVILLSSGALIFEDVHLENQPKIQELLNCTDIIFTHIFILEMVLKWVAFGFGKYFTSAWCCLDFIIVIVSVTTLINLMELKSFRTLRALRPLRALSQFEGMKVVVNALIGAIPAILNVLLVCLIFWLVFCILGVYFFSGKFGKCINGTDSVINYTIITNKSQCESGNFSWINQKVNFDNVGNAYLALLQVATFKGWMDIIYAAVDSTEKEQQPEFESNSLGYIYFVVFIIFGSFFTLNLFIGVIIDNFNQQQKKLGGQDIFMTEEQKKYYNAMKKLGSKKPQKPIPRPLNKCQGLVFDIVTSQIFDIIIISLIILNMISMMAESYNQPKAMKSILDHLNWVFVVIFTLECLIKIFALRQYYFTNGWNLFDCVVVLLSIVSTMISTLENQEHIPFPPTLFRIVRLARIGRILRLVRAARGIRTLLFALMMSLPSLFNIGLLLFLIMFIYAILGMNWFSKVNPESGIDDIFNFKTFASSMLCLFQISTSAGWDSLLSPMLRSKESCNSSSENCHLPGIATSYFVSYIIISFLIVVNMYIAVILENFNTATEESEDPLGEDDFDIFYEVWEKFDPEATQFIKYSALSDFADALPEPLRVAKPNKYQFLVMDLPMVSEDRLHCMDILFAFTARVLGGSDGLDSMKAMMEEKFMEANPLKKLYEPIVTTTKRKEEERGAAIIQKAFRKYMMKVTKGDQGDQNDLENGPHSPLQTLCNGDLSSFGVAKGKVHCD

OD value (450 nm) [1]: 0.072 OD450
OD value (450 nm) [2]: 0.066 OD450
OD value (450 nm) [3]: 0.086 OD450
OD value (450 nm) [4]: 0.088 OD450
OD value (450 nm) [5]: 0.104 OD450
Molecule: negative control of unimmunized serum

binding result [6]: binds
B1: 5A2F9-4 antibody (antibody, V domains shown)
VH: QVQLQQPGAELVKPGASVKLSCKASGYTFTSYWMHWVKQRPGQGLEWIGEINPRNGRINQNEKFKSKATLTVAKSSSTAYMQLSSLTSEDSAVYYCSRGGGSSAEGGYWGQGTTLTVSS
VL: DVLMTQTPLSLPVSLGDQASISCRSSQSIVHSNGNTYLDWYLQKPGQSPKLLIYKVFNRLSGVPDRFSGSGSGTDFTLKISRVEAEDLGVYYCFQGSHVPLTFGAGTKLELQ
notes: Mouse hybridoma monoclonal antibody
